± gives the uncertainty stated by the source.

A short description of the series: amyloid nucleation score (Sup35N fusion, yeast selection) (log enrichment); library NNK3; higher = more nucleation; inactive = no reads after selection. Put shortly: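 Peptides of 20 random codons fused to Sup35N were expressed in psi-negative yeast, induced 24 hours with 100 μM copper sulfate, then grown 7 days at 30°C on medium lacking adenine and uracil. Input and output plasmid inserts were Illumina-sequenced. Nucleation score is the DiMSum log enrichment of output over input reads, centred on the mode score of non-aggregating sequences, excluding sequences with under 100 input reads. Random libraries had three technical output replicates.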
As for PMCFSSHRFGTCRINWHVPG, the amyloid nucleation score entry was “inactive”.

For the substance PMKGSSMSTPTANIRQ, the amyloid nucleation score is -0.135 ± 1.1.

Take PMYVHRKDYKVVGSYMSTM: the amyloid nucleation score result was “inactive”.

With PNGSYAKQLLVSIL, the amyloid nucleation score result was “inactive”.

PNLMLPCTSGRELMKVSNVL: the amyloid nucleation score entry was “inactive”.

With PNPLRLNNIRRVLARKSKVS, the amyloid nucleation score result was “inactive”.

Consider PNPYGNGIITWKN, for which the amyloid nucleation score result is “inactive”.

As to PNRLTPFQRSTSSHLQNVGQ, the amyloid nucleation score entry is “inactive”.

Regarding PNRNYVCGMSCYGAVVSELR, the amyloid nucleation score result was “inactive”.

Regarding PNYKNYLGGNRVVS, the amyloid nucleation score entry is “inactive”.

PQIVFRFDNIDQ: the amyloid nucleation score result was “inactive”.

In the case of PRGMPIAIFSDWCRLRWGVF, the amyloid nucleation score entry is “inactive”.

In the case of PRNHIRSLSM, the amyloid nucleation score entry was “inactive”.

On to PRPSYWHRYSWSTTIVGGIS, for which the amyloid nucleation score result is “inactive”.

PRSMNLHLTSSVTSCLKSVW had an amyloid nucleation score of -0.707 ± 0.9.

As for PRYGEVGATSFSDVTETML, the amyloid nucleation score entry is “inactive”.

In the case of PSHPVPLFHE, the amyloid nucleation score result is “inactive”.

In the case of PSHTLRNTSLSMSVSTTHKA, the amyloid nucleation score result is “inactive”.

On to PSKPRTGQVGGVYHLCVVFW, for which the amyloid nucleation score entry is “inactive”.

With PSLYDLKRSCWGSWMAYEWK, the amyloid nucleation score entry is “inactive”.

As to PSNMRG, the amyloid nucleation score was 0.147 ± 0.34.

On to PSRRRMYADFHKATFPVRMG, for which the amyloid nucleation score result is “inactive”.

PSSLVIINNYSYC yielded an amyloid nucleation score of 3.09 ± 0.073.

Take PSSSDGSMHLYIILQTLLFF: the amyloid nucleation score is 1.49 ± 0.11.

Regarding PSTEI, the amyloid nucleation score entry is “inactive”.

Regarding PSTGLNSVKNRIDVSCGFR, the amyloid nucleation score result was “inactive”.

PTCGMDFVLQEYTKT: the amyloid nucleation score result was “inactive”.

Regarding PTFCNQNFGNTFGCKRFYLS, the amyloid nucleation score result is “inactive”.

Take PTILWAQYAGWGSKVWPPRL: the amyloid nucleation score result is “inactive”.

Regarding PTKRYVKSYLISCVFIISHP, the amyloid nucleation score entry is “inactive”.

On to PTLLTMRQEQRHAKNFRSNL, for which the amyloid nucleation score entry is “inactive”.

In the case of PTLYRQNGLLWLVDGEKLIR, the amyloid nucleation score entry is “inactive”.

On to PTNLYCHRMGEVSVYCRNLR, for which the amyloid nucleation score result is “inactive”.

As for PTNTNCLNVLG, the amyloid nucleation score entry was “inactive”.

On to PTVKKLYMQLFLSPCISSEG, for which the amyloid nucleation score entry was “inactive”.

For the substance PVLGSHRIVLSFDKIYLSRD, the amyloid nucleation score entry was “inactive”.

PVLSYSVLRYL: the amyloid nucleation score entry is “inactive”.

In the case of PVQQSGLVWRLGAIVVC, the amyloid nucleation score entry is “inactive”.

With PVRIVLVKPGIFMLDVTYSP, the amyloid nucleation score result is “inactive”.

As for PVSII, the amyloid nucleation score result is “inactive”.

With PVVTMLYLTSIVSSSGHGSY, the amyloid nucleation score worked out at 0.898 ± 0.11.

In the case of PVVTVGYLDRMFISFLFSRI, the amyloid nucleation score result was “inactive”.

Substance PWSWWTHYTSGCQYQFGYRG displayed an amyloid nucleation score of -0.749 ± 1.1.

With PYTTLYSFRNC, the amyloid nucleation score entry was “inactive”.

For PYYRRMPVDSARRTSKSK, the amyloid nucleation score entry was “inactive”.

With QALYDWILWNHWTTKVGPVA, the amyloid nucleation score entry was “inactive”.

For QAVMKRAALVPTRTAKSLPS, the amyloid nucleation score result was “inactive”.

As to QCFCILDFMYWIHARSIM, the amyloid nucleation score entry was “inactive”.

In the case of QCKHSPGWAWRNSTNHCIAS, the amyloid nucleation score entry is “inactive”.

As to QCLQALNMKIVFDHVRFRVR, the amyloid nucleation score result was “inactive”.

As to QCRHPGSRP, the amyloid nucleation score result was “inactive”.

On to QCRYRRSST, for which the amyloid nucleation score entry is “inactive”.

On to QCVCLS, for which the amyloid nucleation score entry was “inactive”.

Regarding QCVRSMLEELRIGYKVHRQS, the amyloid nucleation score result was “inactive”.

Regarding QCYCGLTPTANLDPLMRIWD, the amyloid nucleation score entry was “inactive”.

Turning to QDDAVFSLSI, the amyloid nucleation score result was “inactive”.

For the substance QDWEMVN, the amyloid nucleation score result was “inactive”.

For QEYEGLRDSVKTVEGYVWLM, the amyloid nucleation score entry was “inactive”.

Take QFHYYVLMIRSVIPFIALWK: the amyloid nucleation score entry is “inactive”.

QFLRGVMPAGMECAHATMRW: the amyloid nucleation score result is “inactive”.

QFMYMFRARRTCGLNNGGQD gave an amyloid nucleation score of -0.689 ± 1.5.

Regarding QFSRPGIFNFHRWDSRYRAA, the amyloid nucleation score entry is “inactive”.

Turning to QFSRWI, the amyloid nucleation score entry was “inactive”.

On to QFTGHINRDVNM, for which the amyloid nucleation score entry was “inactive”.

With QFYTDSFLHIIFSWCGPLDQ, the amyloid nucleation score result was “inactive”.

As to QGEHRHLCDLSLSEG, the amyloid nucleation score entry was “inactive”.

QGFFRFSLVSAKRACKLDYS: the amyloid nucleation score entry is “inactive”.

In the case of QGHNHYVTILRFIWFLRPAM, the amyloid nucleation score entry is “inactive”.

Substance QICRGCRYVNVYYVPLSLDL yielded an amyloid nucleation score of 1.32 ± 0.095.

Regarding QIMIIISMRVSNMCGVSYLG, the amyloid nucleation score entry is “inactive”.

Turning to QIQGMNSQKRLRLKKP, the amyloid nucleation score result is “inactive”.

As for QKIVSPRSGGFASPRMRQKV, the amyloid nucleation score result is “inactive”.

As for QLAKG, the amyloid nucleation score result is “inactive”.

Turning to QLFMPGSVVTHRSYFTCMWL, the amyloid nucleation score was found to be 1.95 ± 0.064.

Regarding QLGDMNAAALITATASRLVM, the amyloid nucleation score entry is “inactive”.

As for QLRRCLEMARYSKARFRNCM, the amyloid nucleation score result is “inactive”.

For the substance QLSHKACLWLSCSSGIPLGS, the amyloid nucleation score result is “inactive”.

Consider QMEKHLRAASVSVCTSQSPV, for which the amyloid nucleation score result was “inactive”.

Take QMGVVNLRAKGQQCAQRQSK: the amyloid nucleation score result is “inactive”.

Turning to QNNRHISHLGLQGDEQALVY, the amyloid nucleation score entry is “inactive”.

Consider QPPAKSMWFSFDMLS, for which the amyloid nucleation score entry is “inactive”.

Consider QQVLVVQNKCEWGRHIA, for which the amyloid nucleation score entry is “inactive”.

In turn, QQYSTAYYIHGFTKMVGVVA showed an amyloid nucleation score of 0.298 ± 0.19.

As to QREGSNCAILCLL, the amyloid nucleation score result is “inactive”.

QRIESGPLDY: the amyloid nucleation score entry was “inactive”.

QSIARWTVLSFSWRTTSRKS registered an amyloid nucleation score of -0.416 ± 1.2.

As to QSLLSSLLGSYSRLEKLNVD, the amyloid nucleation score entry was “inactive”.

Regarding QSLVPSFDPNLCQVGVLYCC, the amyloid nucleation score is -0.654 ± 0.84.

As for QSMWH, the amyloid nucleation score result is “inactive”.

With QSPSSKAK, the amyloid nucleation score result was “inactive”.

For QSQLGPDCRSYTGGERVLDV, the amyloid nucleation score result is “inactive”.

Turning to QSRMPCSLFILVNGDHDDMA, the amyloid nucleation score entry is “inactive”.

QSTPYYLGFTD yielded an amyloid nucleation score of 0.988 ± 0.11.

As to QSYIRKQFRIQSHISFSDNS, the amyloid nucleation score result was “inactive”.

In the case of QTAFQRL, the amyloid nucleation score entry is “inactive”.

As for QTAIIANPSVGGWLSNSHVR, the amyloid nucleation score entry is “inactive”.

In the case of QTIRTMKRGNRISCVPAGHS, the amyloid nucleation score entry is “inactive”.

Consider QTNIWYSGPIGSYHC, for which the amyloid nucleation score entry was “inactive”.

Regarding QVCYG, the amyloid nucleation score result was “inactive”.

Consider QVFSN, for which the amyloid nucleation score entry is “inactive”.

As for QVGPWLDNSNSFCDDIKGMC, the amyloid nucleation score result was “inactive”.

Take QVGSRRNSS: the amyloid nucleation score entry was “inactive”.

Turning to QVRNSDRFSCIGSANIRKSL, the amyloid nucleation score entry was “inactive”.

In the case of QVSFFSQIRV, the amyloid nucleation score entry was “inactive”.

On to QVYGINLGSTGNEARYAVRD, for which the amyloid nucleation score result is “inactive”.

Consider QWFHVSLS, for which the amyloid nucleation score entry is “inactive”.

QWTSFLVLCCTNPRLGSSRV yielded an amyloid nucleation score of 2.67 ± 0.073.

As to QYAAMATGNLYLS, the amyloid nucleation score result is “inactive”.

Turning to QYCSGSLKFRGVPIFNGDDG, the amyloid nucleation score result is “inactive”.

As for QYCSSCLLWCMKSQGLDMTR, the amyloid nucleation score entry is “inactive”.

In the case of QYFVP, the amyloid nucleation score result was “inactive”.

With QYHNQYHMIKRLYAFRARMG, the amyloid nucleation score entry is “inactive”.

For the substance QYISIENHPEACMQGSTCYS, the amyloid nucleation score result was “inactive”.

Consider QYKSMAGSLWFNSVQEQASK, for which the amyloid nucleation score result was “inactive”.

Take QYLFCVVGGWIVRYLWPWML: the amyloid nucleation score entry was “inactive”.

In the case of RAFHYNSCKSVSAVLDLNVL, the amyloid nucleation score is -0.094 ± 0.31.

On to RAGDNIFWTIAKCTRNTHVM, for which the amyloid nucleation score result is “inactive”.

Consider RAGVKNG, for which the amyloid nucleation score entry was “inactive”.

As to RAIGLGAFGIRRGGTRKWNE, the amyloid nucleation score is -1.06 ± 2.5.

For the substance RAMCIESTYLVMPYTTCNQT, the amyloid nucleation score result is “inactive”.

In turn, RAMLLGFSCMVWVPWGQFGK displayed an amyloid nucleation score of 0.649 ± 0.22.

Take RANESTLM: the amyloid nucleation score result was “inactive”.

Take RANVQDMTKISYVFTYTWYV: the amyloid nucleation score entry is “inactive”.

On to RAPAMGL, for which the amyloid nucleation score entry is “inactive”.

Consider RASMYG, for which the amyloid nucleation score result is “inactive”.

For RCDKIWQASVMGSDIRDL, the amyloid nucleation score entry was “inactive”.

Take RCELCMSIKGLAVNNIR: the amyloid nucleation score was determined as 1.9 ± 0.1.

On to RCKIENVIYM, for which the amyloid nucleation score amounted to 2.44 ± 0.058.

On to RCNISTRFLLLWTFSFLLVY, for which the amyloid nucleation score entry is “inactive”.

As to RCSDWYHFTAQSS, the amyloid nucleation score entry is “inactive”.

RCTELVKAISLVVVYIYDEG: the amyloid nucleation score result is “inactive”.
